# Laboratory results as given in IntAct's records for PubMed 28965847.
# B1: Suppressor of fused homolog (Homo sapiens), Q9UMX1 (parent)
# chain: MAELRPSGAPGPTAPPAPGPTAPPAFASLFPPGLHAIYGECRRLYPDQPNPLQVTAIVKYWLGGPDPLDYVSMYRNVGSPSANIPEHWHYISFGLSDLYGDNRVHEFTGTDGPSGFGFELTFRLKRETGESAPPTWPAELMQGLARYVFQSENTFCSGDHVSWHSPLDNSESRIQHMLLTEDPQMQPVQTPFGVVTFLQIVGVCTEELHSAQQWNGQGILELLRTVPIAGGPWLITDMRRGETIFEIDPHLQERVDKGIETDGSNLSGVSAKCAWDDLSRPPEDDEDSRSICIGTQPRRLSGKDTEQIRETLRRGLEINSKPVLPPINPQRQNGLAHDRAPSRKDSLESDSSTAIIPHELIRTRQLESVHLKFNQESGALIPLCLRGRLLHGRHFTYKSITGDMAITFVSTGVEGAFATEEHPYAAHGPWLQILLTEEFVEKMLEDLEDLTSPEEFKLPKEYSWPEKKLKVSILPDVVFDSPLH
# Variants of: B1
# Settings: with gli3_mouse Gli3, Q61602
# Sequence of gli3_mouse Gli3, Q61602 (Q61602 whole entry): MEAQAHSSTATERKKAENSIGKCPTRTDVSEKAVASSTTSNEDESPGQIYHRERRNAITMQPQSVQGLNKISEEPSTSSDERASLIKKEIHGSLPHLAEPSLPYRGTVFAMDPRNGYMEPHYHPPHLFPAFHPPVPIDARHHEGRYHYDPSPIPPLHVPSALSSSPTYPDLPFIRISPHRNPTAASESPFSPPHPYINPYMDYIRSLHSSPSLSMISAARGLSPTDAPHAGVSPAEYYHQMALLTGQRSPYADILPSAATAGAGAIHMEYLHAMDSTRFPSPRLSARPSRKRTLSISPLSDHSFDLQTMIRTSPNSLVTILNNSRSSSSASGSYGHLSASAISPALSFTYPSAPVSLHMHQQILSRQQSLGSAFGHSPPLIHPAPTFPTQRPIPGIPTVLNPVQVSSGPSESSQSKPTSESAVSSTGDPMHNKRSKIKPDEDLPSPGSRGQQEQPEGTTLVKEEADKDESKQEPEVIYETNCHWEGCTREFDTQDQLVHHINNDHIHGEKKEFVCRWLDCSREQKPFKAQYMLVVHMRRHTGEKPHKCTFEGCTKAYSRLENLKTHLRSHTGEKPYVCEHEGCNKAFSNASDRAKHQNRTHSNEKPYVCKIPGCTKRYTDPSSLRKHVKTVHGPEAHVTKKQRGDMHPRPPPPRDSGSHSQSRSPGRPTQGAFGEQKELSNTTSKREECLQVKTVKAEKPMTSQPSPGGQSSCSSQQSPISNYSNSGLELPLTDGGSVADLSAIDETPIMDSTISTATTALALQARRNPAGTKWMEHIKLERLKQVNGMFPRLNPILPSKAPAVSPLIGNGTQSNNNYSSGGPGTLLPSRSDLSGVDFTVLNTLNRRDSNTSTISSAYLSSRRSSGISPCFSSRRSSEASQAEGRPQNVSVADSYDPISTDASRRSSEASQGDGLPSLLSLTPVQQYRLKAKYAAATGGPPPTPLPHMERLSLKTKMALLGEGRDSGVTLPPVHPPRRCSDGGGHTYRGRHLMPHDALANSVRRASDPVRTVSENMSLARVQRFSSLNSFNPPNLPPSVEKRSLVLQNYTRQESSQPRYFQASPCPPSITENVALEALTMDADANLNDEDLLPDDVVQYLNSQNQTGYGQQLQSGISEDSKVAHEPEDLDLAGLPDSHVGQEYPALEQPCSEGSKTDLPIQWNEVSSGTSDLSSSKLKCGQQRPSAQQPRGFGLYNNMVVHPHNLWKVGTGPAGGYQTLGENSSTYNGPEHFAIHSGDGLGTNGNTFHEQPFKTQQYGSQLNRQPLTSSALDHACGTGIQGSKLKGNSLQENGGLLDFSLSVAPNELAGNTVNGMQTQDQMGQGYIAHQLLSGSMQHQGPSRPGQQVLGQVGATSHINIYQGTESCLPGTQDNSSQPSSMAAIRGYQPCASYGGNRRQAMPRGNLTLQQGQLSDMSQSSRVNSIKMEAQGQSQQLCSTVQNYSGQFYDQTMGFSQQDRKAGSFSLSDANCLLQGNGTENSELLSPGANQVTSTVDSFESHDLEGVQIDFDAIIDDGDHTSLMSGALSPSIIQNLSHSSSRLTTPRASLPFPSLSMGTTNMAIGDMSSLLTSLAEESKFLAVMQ
row,effect of a mutation on the interaction,Variant
1,disrupting interaction strength,I406T
2,decreasing interaction strength,H176R
